Measured values as given in US20050282239A1, “Cell-permeable enzyme activation reporter that can be loaded in a high throughput and gentle manner” (priority 2003, published 2005).
Ends that are not written are not given here.

Experiments:
PKB [1] = target: T1, PKB (Homo sapiens, UniProt P31749); experiment: CACE: intracellular phosphorylation of PKB substrate in HT1080 cells; assay type: cell-based
T1 construct: endogenous in cells; host or cells: HT1080 cells; HT1080/PTEN cells (engineered to over-express wild type PTEN, PKB itself not transfected)
Excerpt: Since the properties of F-PKB (SEQ ID NO:17) microinjected into HT1080 cells have been well characterized, experiments were undertaken to compare the fate of F-PKB-C loaded as F-PKB-C-SS-TAT (SEQ ID NO:16) into HT1080 cells to that of the microinjected F-PKB (SEQ ID NO:17). When microinjected, the percentage of phosphorylated F-PKB depended on the relative, steady-state levels of both the kinases and phosphatases. This observation is shown in electrophoretic traces from cells loaded with F-PKB-C-SS-TAT (1 μM) (FIG. 6). A single asterisk denotes the migration time of F-PKB, and a double asterisk denotes the migration time of phosphorylated F-PKB from cells on the day of the experiment.
(§1) CACE has been previously described (Sims, Meredith et al. 1998; Meredith, Sims et al. 2000; Li, Wu et al. 2001). Briefly, cells were placed on an inverted fluorescence microscope stage (Diaphot 300, Nikon, Japan) and maintained at 37° C. with an objective heater (Bioptechs; Butler, Pa.) prior to lysis unless stated otherwise. The cells were continually washed with ECB maintained at 37° C. (unless otherwise indicated) with a flow rate of 1 ml/min and a total chamber volume of 0.5 ml. The inlet of a capillary (30 μm I.D., 360 μm O.D., 75 cm long) was positioned 10 μm above the cell. The inverted microscope was coupled to a pulsed Nd:YAG laser and a CE system (Sims, 1998). The CACE-based assay was performed as previously described (U, 2001; Meredith, 2000). Cells were always maintained in ECB when analyzed by the CACE.
CE was performed as described (Sims, Meredith et al. 1998), with the following modifications. The inner walls of the capillaries (30 μm I.D., 360 μm O.D.) were coated with poly(acrylate) (Wang, Hu et al. 2003). The outlet of the capillary was held at a negative potential of 18-21 kV, and the inlet reservoir was held at ground potential. Under these conditions, the current through the capillary was typically ˜36 μA. Solutions of standards were loaded into the capillary by gravitational fluid flow. The loaded volume was calculated from Poiseulle's equation and from contributions by spontaneous fluid displacement and diffusion (Weinberger, 2000; Fishman, 1994; Crank, 1989). To estimate the number of moles of peptide in an unknown solution or within a cell, the peak area from the electrophoretic trace of the solution or the cell was compared to that of a standard of known concentration separated by electrophoresis on the same day. A 1 pL cell volume and 100% peptide recovery was assumed in calculating intracellular peptide concentration (Meredith, Sims et al. 2000; Sims, Meredith et al. 1998). Analytes were detected by laser-induced fluorescence (Sims, Meredith et al. 1998).
Cells were incubated at room temperature for 5 minutes in 1% bovine serum albumin (BSA) in ECB, washed in ECB, and then incubated for 5 minutes at room temperature with a substrate conjugated to TAT(49-57). The cells were then washed with 1% BSA in ECB. Cells loaded with the disulfide conjugate were placed in supplement DMEM (10% FCS, 4 mM L-glutamine, 100 U/mL penicillin and 100 μg/mL streptomycin) and incubated at 37° C. in 5% CO2 for 20 minutes. Cells loaded with the photolabile conjugate were placed in supplemented DMEM and incubated at 37° C. in 5% CO2 for 10 minutes (unless stated otherwise) and were then illuminated with a UV light source for 10 seconds (a radiant energy/unit area of 2 kJ/m^2). The supplemented DMEM was exchanged and the cells were incubated another 10 minutes at 37° C. in 5% CO2. Just prior to analysis the cells were washed into ECB.

HT1080 cells = experiment: CACE single-cell analysis: loading and release of cargo; assay type: cell-based, human
PKB [2] = target: T1, PKB; experiment: CACE: intracellular phosphorylation of PKB substrate in HT1080/PTEN cells; assay type: cell-based; conditions: 1 μM extracellular, UVA 10 s
Method: Previous investigators developed cleavable PTD-cargo conjugates by engineering a disulfide linkage between the two domains (Stein, Weiss et al. 1999; Hallbrink, Floren et al. 2001). […] TAT(49-57)(SEQ ID NO:2) was conjugated via a disulfide bond to cysteines added to substrate peptides for CamKII (F-CamKII-C; SEQ ID NO:13) or PKB (F-PKB-C; SEQ ID NO:14), denoted F-CamKII-C-SS-TAT (SEQ ID NO:15) and F-PKB-C-SS-TAT (SEQ ID NO:16), respectively. The TAT(49-57)-Conjugated substrates were incubated with cells (HT1080 or HT1080/PTEN cells) and the contents of the cells were analyzed by the CACE. […]
CACE has been previously described (Sims, Meredith et al. 1998; Meredith, Sims et al. 2000; Li, Wu et al. 2001). Briefly, cells were placed on an inverted fluorescence microscope stage (Diaphot 300, Nikon, Japan) and maintained at 37° C. with an objective heater (Bioptechs; Butler, Pa.) prior to lysis unless stated otherwise. […] Cells were always maintained in ECB when analyzed by the CACE.
(§2) CE was performed as described (Sims, Meredith et al. 1998), with the following modifications. […] The loaded volume was calculated from Poiseulle's equation and from contributions by spontaneous fluid displacement and diffusion (Weinberger, 2000; Fishman, 1994; Crank, 1989). […] Analytes were detected by laser-induced fluorescence (Sims, Meredith et al. 1998). […]

[3] = In vitro UVA photocleavage of photolabile conjugate, CE quantification; assay type: physicochemical
Excerpt: Therefore, we designed a second detachable linker between the TAT(49-57) and the substrate peptide. An Fmoc-aminoethyl photolabile moiety was inserted between the fluorescently-labeled substrate and the TAT(49-57) sequences using standard Fmoc peptide chemistry. The relative order of the different portions of the conjugate was: fluorescein-substrate-PLL-TAT(49-57). Two different substrate peptides were conjugated to TAT(49-57) to form F-PKB-PLL-TAT (SEQ ID NO:18) and F-CamKII-PLL-TAT (SEQ ID NO:19). To determine the time and irradiation intensity needed to photocleave the conjugated peptides, standard solutions (1 nM or 10 μM) of F-PKB-PLL-TAT (SEQ ID NO:18) were illuminated with long-wavelength UV light (UVA) for varying times. The sample was then loaded into a capillary and electrophoresis performed. The concentration of the released substrate peptide was quantified from its fluorescence. At the irradiation intensity used, maximal cleavage of the substrate peptide from the TAT(49-57) sequence was achieved within 20 minutes. […] After a 10 s exposure, 2% of the conjugate was photoreleased. […] The fluorescein was not substantially photobleached by the UVA-induced cleavage since the amount of fluorescent peptide detected after a 4 h irradiation was almost identical to that after 20 min of UVA exposure.
The photolabile TAT(49-57) conjugate (e.g., SEQ ID NOs:18 or 19) (1 nM or 10 μM in ECB) was illuminated with ultraviolet A (UVA; 20 mW/cm^2) using a 365 nm light source (UVP Blak-Ray B100AP; Upland, Calif.). […] for the photolabile group was 365 nm. After photo-release, the fluorescent substrate was resolved by electrophoresis and then quantified by CE. Detection wavelengths were: excitation, 488 nm; emission, 505-565 nm.
A known concentration of the photo-cleavable reporter was placed in an uncapped, shallow vial. The sample was then illuminated with the UV light source for varying times as described above. A small amount of the sample was then removed and the amount of released peptide was quantified using CE. […]

CamKII = experiment: CACE: intracellular phosphorylation of CamKII substrate in HT1080 cells; assay type: cell-based, human
Method: To determine whether the detached peptide substrates were in the cytosol and accessible to kinases, the intracellular phosphorylation of the translocated cargo was studied. In the initial experiment, F-CamKII-C-SS-TAT (SEQ ID NO:15) at 750 nM extracellular concentration was loaded into HT1080 cells. The cells were incubated with ionomycin (500 nM) for 15 min to increase the intracellular concentration of free Ca^2+ and activate the CamKII enzyme (Worrell and Frizzell 1991). […] The migration time of the second peak was identical to that of phosphorylated F-CamKII-C loaded into cells. 52+3% (mean±SEM) (n=5) of the F-CamKII-C was phosphorylated as determined by comparison of the peak areas. At least half of the F-CamKII-C was in the cytosol and accessible to the kinase. For these cells the average number of moles per cell was ˜2×10^−20 which is equivalent to a cytosolic concentration of ˜100 nM.
as §1, §2

T1 sequence (P31749 whole entry): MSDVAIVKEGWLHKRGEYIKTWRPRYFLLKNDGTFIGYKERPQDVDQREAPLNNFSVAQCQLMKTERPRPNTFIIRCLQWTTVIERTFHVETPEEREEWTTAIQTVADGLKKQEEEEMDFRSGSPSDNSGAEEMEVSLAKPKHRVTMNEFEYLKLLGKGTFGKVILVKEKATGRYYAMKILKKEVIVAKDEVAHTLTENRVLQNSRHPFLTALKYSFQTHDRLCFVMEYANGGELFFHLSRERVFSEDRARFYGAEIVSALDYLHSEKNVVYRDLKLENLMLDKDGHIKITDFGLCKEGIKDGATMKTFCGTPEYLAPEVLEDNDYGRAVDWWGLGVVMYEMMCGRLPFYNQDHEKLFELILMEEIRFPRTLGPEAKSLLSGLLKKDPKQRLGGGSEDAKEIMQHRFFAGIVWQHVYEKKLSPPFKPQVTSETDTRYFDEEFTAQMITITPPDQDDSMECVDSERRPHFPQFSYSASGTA

Substance: Gly Arg Pro Arg Ala Ala Thr Phe Ala Glu Gly (GRPRAATFAEG-NH2; not fully specified (N-terminus); printed as Gly Arg Pro Arg Ala Ala Thr Phe Ala Glu Gly; also: fluorescein label, position not given here) [F-PKB, fluorescein-labeled substrate for protein kinase B]
- peptide phosphorylated at steady state (PKB [1]; microinjected): approximately 70%
- time to steady state of phosphorylation (PKB [1]; microinjected): less than 2 min

Substance: Gly Arg Pro Arg Ala Ala Thr Phe Ala Glu Gly Arg Lys Lys Arg Arg Gln Arg Arg Arg (GRPRAATFAEGRKKRRQRRR-NH2; not fully specified (residue 11, N-terminus); printed as Gly Arg Pro Arg Ala Ala Thr Phe Ala Glu Gly Arg Lys Lys Arg Arg Gln Arg Arg Arg; also: fluorescein, position not given here, photolabile linker, position not given here) [F-PKB-PLL-TAT, fluorescein-PKB substrate-photolabile linker-TAT(49-57)]
- cytoplasmic concentration of free F-PKB (HT1080 cells; 1 μM 5 min, 30 min incubation, UVA 10 s): ~200 nM
- average quantity of F-PKB detected per cell (HT1080 cells; 1 μM 5 min, 30 min incubation, UVA 10 s, n=15): 2e-19 ± 9e-20 mol
- internalization process into the cytosol (HT1080 cells; 1 μM, 37° C.): complete within one hour
- total amount of F-PKB detected versus incubation time (HT1080 cells; 1 μM, 37° C., 5 min adsorption, wash, varying incubation, UVA 10 s): increased over the initial hour of incubation and then stabilized
- amount of F-PKB measured per cell (HT1080 cells; 1 μM, 4° C.): reduced
- amount of F-PKB measured per cell (HT1080 cells; 1 μM, 23° C. and 37° C.): similar
- F-PKB present in the phosphorylated form (PKB [1]; 1 μM extracellular, UVA 10 s, n=15): 67±7%
- percentage of phosphorylated F-PKB versus incubation time (PKB [1]; 1 μM, 37° C.): did not vary with the incubation time
- time scale on which F-PKB is accessible to kinase (PKB [1]; 1 μM, 37° C.): < 30 min
- phosphorylation of F-PKB (PKB [1]; 1 μM, 4° C.): Essentially no phosphorylation
- percentage of phosphorylated F-PKB (PKB [1]; 1 μM, 23° C. and 37° C.): similar
- phosphorylation of released F-PKB (PKB [2]): not seen
- conjugate photoreleased ([3]; 10 s UVA exposure): 2%
- time to maximal cleavage of substrate peptide from TAT(49-57) ([3]; UVA, 1 nM or 10 μM solution): ≤ 20 min
- free substrate peptide ([3]; without UVA illumination): no free substrate peptide could be detected

Substance: KKALHRQETVDALCRKKRRQRRR [F-CamKII-C-SS-TAT]
- average number of moles per cell (HT1080 cells; 750 nM extracellular, ionomycin-treated cells): ~2e-20 mol
- cytosolic concentration (HT1080 cells; 750 nM extracellular, ionomycin-treated cells, 1 pL cell volume assumed): ~100 nM
- F-CamKII-C phosphorylated (mean±SEM) (CamKII; 750 nM extracellular, ionomycin 500 nM 15 min, n=5): 52+3%

Substance: KKALHRQETVDALCRKKRRQRRR [F-CamKII-PLL-TAT]
- average concentration of F-CamKII in the cytosol (HT1080 cells; 300 nM extracellular): 180 nM
- detectable F-CamKII per cell (HT1080 cells; 300 nM extracellular, n=3): 1.8e-19 ± 1.9e-19 mol
- total F-CamKII phosphorylated (CamKII; 300 nM extracellular, ionomycin 500 nM 15 min, n=3): 67±17%

Substance: Lys Lys Ala Leu His Arg Gln Glu Thr Val Asp Ala Leu Cys (KKALHRQETVDALC-NH2; not fully specified (N-terminus); printed as Lys Lys Ala Leu His Arg Gln Glu Thr Val Asp Ala Leu Cys; also: fluorescein label, position not given here) [F-CamKII-C, fluorescein-labeled CamKII substrate with added cysteine]
- phosphorylation in unstimulated cells (CamKII; HT1080 cells, no constitutive CamKII activity): little to no phosphorylation
